# Experimental data taken from IntAct's records for PubMed 10660620.
# B1: Paired immunoglobulin-like type 2 receptor alpha (Homo sapiens), Q9UKJ1 (parent)
# chain: MGRPLLLPLLPLLLPPAFLQPSGSTGSGPSYLYGVTQPKHLSASMGGSVEIPFSFYYPWELATAPDVRISWRRGHFHRQSFYSTRPPSIHKDYVNRLFLNWTEGQKSGFLRISNLQKQDQSVYFCRVELDTRSSGRQQWQSIEGTKLSITQAVTTTTQRPSSMTTTWRLSSTTTTTGLRVTQGKRRSDSWHISLETAVGVAVAVTVLGIMILGLICLLRWRRRKGQQRTKATTPAREPFQNTEEPYENIRNEGQNTDPKLNPKDDGIVYASLALSSSTSPRAPPSHRPLKSPQNETLYSVLKA
# Variants of: B1
# Settings: with ptn6_human PTPN6, P29350
# ptn6_human PTPN6, P29350, sequence (P29350 whole entry): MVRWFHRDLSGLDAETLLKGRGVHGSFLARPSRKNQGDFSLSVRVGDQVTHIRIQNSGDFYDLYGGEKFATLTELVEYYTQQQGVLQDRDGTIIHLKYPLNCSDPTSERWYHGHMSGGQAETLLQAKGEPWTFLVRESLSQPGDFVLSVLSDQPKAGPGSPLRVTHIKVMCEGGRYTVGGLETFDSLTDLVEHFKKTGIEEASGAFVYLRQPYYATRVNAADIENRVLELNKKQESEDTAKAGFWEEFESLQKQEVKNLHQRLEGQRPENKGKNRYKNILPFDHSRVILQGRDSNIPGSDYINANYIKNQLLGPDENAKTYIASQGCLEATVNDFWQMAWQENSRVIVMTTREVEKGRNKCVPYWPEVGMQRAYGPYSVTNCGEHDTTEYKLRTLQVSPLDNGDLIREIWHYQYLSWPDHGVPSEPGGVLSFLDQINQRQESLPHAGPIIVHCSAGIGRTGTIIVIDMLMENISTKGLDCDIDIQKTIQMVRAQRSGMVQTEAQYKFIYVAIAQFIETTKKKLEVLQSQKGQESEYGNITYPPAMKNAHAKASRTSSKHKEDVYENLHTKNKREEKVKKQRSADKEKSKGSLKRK
row,Variant,effect of a mutation on the interaction
1,Y269F,decreasing interaction
2,Y269F;Y298F,decreasing interaction
